Results from patent US20240317871A1 (IMMUNOMIC THERAPEUTICS, published 2024).
Substitutions are numbered along the chain they refer to.

B1: Ab_048 (H5S19-24A22A) (antibody, V domains shown)
VH: QVQLQQSGGELLRPGTSVKVSCKASGYAFTNYLIEWVKQRPGQGLEWIGVINPGSGGIYYKEKFKDKAILTADKSSSTAYMQLSSLTSDDSAVYFCARGDAMDFWGQGTSVTVSS
VL: DAVMTQTPLSLTVSLGDQASISCRSSQTLENTNGNTYLNWYLQKPGQSPQLLIYRVSNRFSGVLDRFSGSGSGTDFTLKISRVEAEDLGVYFCLQVTHVPYTFGGGTKLEIK
notes: also called Ab_48
B2: Ab_020 (H5S14-22A20A) (antibody, V domains shown)
VH: EVQLQQSGPELVKPGASVKMSCKASGYTFTSYVMHWVKQKPGQGLEWIGYINPYNDGTKYNEKFKGKATLTSDKSSSTAYMELSSLTSEDSAVYYCARGIITTVIEPILYAMDYWGQGTSVTVSS
VL: NIVLTQSPASLAVSLGQRATISCRASESVDSYGNSFMHWYQQKPGQPPKLLIYLASNLESGVPARFSGSGSRTDFTLTIDPVEADDAATYYCQQNNEDPYTFGGGTKLEIK
notes: also called Ab_20
B3: Ab_021 (H5S14-29A20A) (antibody, V domains shown)
VH: B2 VH with I105V
VL: B2 VL
notes: also called Ab_21
B4: Ab_042 (H5S15-28A23A) (antibody, V domains shown)
VH: QVQLQQSGAELVKPGASVKMSCKAFGYTFTTYPIEWMKQNHGKSLEWIGNFHPYNDDTKYNEKFKGKAKLTVEKSSSTVYLELSRLTSDDSAVYYCARGGFAYWGQGTLVTVSA
VL: DVVMTQTPLSLPVSLGDQASISCRSSQSLVHSNGNTYLHWYLQKPGQSPKLLIYKVSNRFSGVPDRFSGSGSGTDFTLKISRVEAEDLGVYFCSQSTHVPFTFGSGTKLEIK
notes: also called Ab_42
B5: Ab_037 (H5S15-13A15A) (antibody, V domains shown)
VH: QVQLKQSGPGLVQPSQSLSITCTVSGFSLTSYGVHWVRQSPGKGLEWLGVIWRGGSTDYNAAFMSRLSITKDNSKSQVFFKMNSLQADDTAIYYCAKTGFAYWGQGTLVTVSA
VL: QIVLTQSPAIMSASPGEKVTMTCSASSSVSYMHWYQQKSGTSPKRWIYDTSKLASGVPARFSGSGSGTSYSLTISSMEAEDAATYYCQQWSSNPLTFGAGTKLELK
notes: also called Ab_37
B6: Ab_040 (H5S15-23A21A) (antibody, V domains shown)
VH: EVQLQQSGTVLARPGASVKMSCKASGYTFTSFWMHWVKQRPGQGLEWIGAISPGNSETTYNQKFTGKAKLTAVTSTSTAYMELSSLTNEDSAVYYCTKIYYDYDDGYWGQGTTLTVSS
VL: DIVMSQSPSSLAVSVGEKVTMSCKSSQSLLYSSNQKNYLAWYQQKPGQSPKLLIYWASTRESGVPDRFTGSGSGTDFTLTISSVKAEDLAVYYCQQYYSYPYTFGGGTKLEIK
notes: also called Ab_40
B7: Ab_061 (H5S19-13A16B) (antibody, V domains shown)
VH: QIQLVQSGPELKKPGETVKISCKASGYTFTNFGVNWVKQAPGKGLKWMGWINTYTGEPTYADDFKGRFAFSLETSASTAYLRINNLKNEDTATYFCARSYYANYAYWGQGTTLTVSS
VL: QIVLTQSPAIMSASPGEKVTLTCSASSSVDSSYLYWYQQKPGSSPKLWIYGTSNLASGVPARFSGSGSGTSYSLTISSMEAEDAASYFCHQWNSYPWTFGGGTKLEIK
notes: also called Ab_61
B8: Ab_075 (H5S20-12A10A) (antibody, V domains shown)
VH: B7 VH with V34M, K38R, R82Q, E89D, T91M, Y100L, A102G, Y104R, A105D
VL: QIVLTQSPAIMSASLGEEITLTCSASSSVSYMHWYQQRSGTSPKLLIYSTSNLASGVPSRFSGSGSGTFYSLTISSVEAEDAADYYCHQWSSYRTFGGGTKLEIK
notes: also called Ab_75
B9: Ab_060 (H5S19-8A16A) (antibody, V domains shown)
VH: B7 VH with T93S, Y104N
VL: B7 VL with Y37F
notes: also called Ab_60
B10: Ab_062 (H5S19-16A18A) (antibody, V domains shown)
VH: B7 VH with R82Q, A97V, A102G, Y104S, A105G
VL: B7 VL with A13T, D30S, G51S, N93S, S94T
notes: also called Ab_62
B11: Ab_038 (H5S15-19A18A) (antibody, V domains shown)
VH: QVQLKESGPGLVAPSQSLSITCTVSGFSLTGYGVNWVRQPPGKGLEWLGMIWGDGGTDYNSALKSRLSISKDNSKSQVFLKMNSLQTDDTARYYCARDNYHTVVNGDYWGQGTSVTVSS
VL: ENVLTQSPAIMSASPGEKVTMTCRASSSVSSSYLHWYQQKSGASPKLWIYSTSNLASGVPARFSGSGSGTSYSLTISSVEAEDAATYYCQQYSGYPLTFGGGTKLEIK
notes: also called Ab_38
B12: Ab_024 (H5S15-1A1A) (antibody, V domains shown)
VH: EVQLQQSGAELVKPGASVKLSCTASGFNIKDTYMHWVKQRPEQGLAWIGRIAPANGYTKYDPKFQGKATITTDTSSNTAYLHLSRLTSEDTAVYYCANYFGNTYDWFAFWGQGTLVTVSA
VL: ENVLTQSPAIMSASPGEKVTMTCSAGSSVSYMHWYQQKSSTSPKLWIYDTSKLPSGVPGRFSGSGSGNSYSLTISSMEAEDVATYYCFQGSGFPLTFGSGTKLEIK
notes: also called Ab_24
B13: Ab_039 (H5S15-21A19A) (antibody, V domains shown)
VH: QIQLVQSGPDLKKPGETVKISCKASGYTFTNYGMNWVKQAPGKDLKWMGWINTYTGEPTYADDFKGRFAFSLETSASTAYLQINNLKNDDTATYFCARSINYDSDEKWGQGTSVTVSS
VL: QIVLTQSPAIMSASLGERVTLTCTASSSVSSSYLHWYQQKPGSSPKLWIYDTSNLASGVPARFSGSGSGTSYSLTISSMEAEDAATYYCHQYHRSQWTFGGGTKLEIK
notes: also called Ab_39
B14: Ab_041 (H5S15-27A22A) (antibody, V domains shown)
VH: EVQLQQSGAELVKPGASVKLSCTASGFNIKDTYMHWVKQRPEQGLEWIGRIDPANGNTKYDPKFQGKATITADTSSNTAYLQLSSLTSEDTAVYYCARSRRYFDVWGAGTTVTVSS
VL: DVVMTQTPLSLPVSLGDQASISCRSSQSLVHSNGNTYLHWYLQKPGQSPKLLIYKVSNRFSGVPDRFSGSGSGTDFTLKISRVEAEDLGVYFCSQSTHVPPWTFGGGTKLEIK
notes: also called Ab_41
B15: Ab_023 (H5S14-27A23A) (antibody, V domains shown)
VH: EVKLDETGGGLVQPGRPMKLSCVASGFTFSDYWMNWVRQSPEKGLEWVAQIRNKPYNYETYYSDSVKGRFTISRDDSKSSVYLQMNNLRAEDMGIYYCTWGNYWGQGTTLTVSS
VL: DIKMTQSPSSMYASLGERVTITCKASQDINSYLSWFQQKPGKSPKTLIYRANRLVDGVPSRFSGSGSGQDYSLTISSLEYEDMGIYYCLQYDEFPWTFGGGTKLEIK
notes: also called Ab_23
B16: Ab_047 (H5S15-36A32A) (antibody, V domains shown)
VH: EVQLQQSGAELVKPGASVKLSCTASGFNIKDTYMHWVKQRPEQGLEWIGRIDPANGNTKYDPKFQGKATITADTSSNTAYLQLSSLTSEDTAVYYCARPYGNYGFAYWGQGTLVTVSA
VL: DIQMTQSPASLSASVGETVTITCRASGNIHNYLAWYQQKQGKSPQLLVYNAKTLADGVPSRFSGSGSGTQYSLKINSLQPEDFGSYYCQHFWSTFTFGSGTKLEIK
notes: also called Ab_47
B17: Ab_081 (H5S20-44A32A) (antibody, V domains shown)
VH: EVKLVESGGGLVQPGGSLKLSCAASGFTFSSYTMSWVRQTPEKRLEWVAYISNGGGSTYYPDTVKGRFTISRDNAKNTLYLQMSSLKSEDTAMYYCARHRGYGSSYNYAMDYWGQGTSVTVSS
VL: DIVMTQSQKFMSTSVGDRVSVTCKASQNVGTNVAWYQQKPGQSPKALIYSASYRYSGVPDRFTGSGSGTDFTLTISNVQSEDLAEYFCQQYNSYPFTFGSGTKLEIK
notes: also called Ab_81
B18: Ab_082 (H5S20-55A36A) (antibody, V domains shown)
VH: EVKLVESGGGLVQPGGSLKLSCAASGFTFSSYTMSWVRQTPEKRLEWVADISNGGGSTYYPDTVKGRFTISRDNAKNTLYLQMSSLKSEDTAMYYCARHRGYGNYVYAMDYWGQGTSVTVSS
VL: B17 VL with F96L, S100G
notes: also called Ab_82
B19: Ab_032 (H5S15-7A8A) (antibody, V domains shown)
VH: QIQLVQSGPELKKPGETVKISCKASGYTFTNYGMNWVKQAPGKGLKWVGWINTYTGEPTYAEDFKGRFAFSLETSASTAYLQINNLKNEDMATYFCARSFYGSEAYWGQGTLVTVSA
VL: QIVLTQSPAIMSASLGEEITLTCSASSSVSFMHWYQQKSGTSPKLLIYSTSNLASGVPSRFSGSGSGTFYSLTISSVEAEDAADYYCHQWSSYLWTFGGGAKLEIK
notes: also called Ab_32
B20: Ab_076 (H5S20-26A22A) (antibody, V domains shown)
VH: QIQLVQSGPELKKPGETVKISCRASGYTFTNYGMNWVKQAPGKGLKWMGWINTYTGEPTYADDFKGRFAFSLETSASSAYLQINNLKNEDMATYFCARSLYYGDNYEAYWGQGTLVTVSA
VL: B19 VL with F31Y, T41S, S49T, L94T, A101T
notes: also called Ab_76
B21: Ab_033 (H5S15-7B8A) (antibody, V domains shown)
VH: B19 VH with E62D
VL: B19 VL
notes: also called Ab_33

The binders below were run against T1, human HVEM (human, UniProt Q92956 39-202, limits assumed) (assay: ELISA).
T1 sequence (looked up): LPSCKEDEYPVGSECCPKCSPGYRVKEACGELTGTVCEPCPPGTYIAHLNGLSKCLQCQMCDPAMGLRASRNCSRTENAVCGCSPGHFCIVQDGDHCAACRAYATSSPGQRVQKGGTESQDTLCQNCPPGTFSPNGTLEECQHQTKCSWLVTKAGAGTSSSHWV
Further: test concentration or dose not given here.

| Binder | ELISA signal |
| --- | --- |
| B1 | 2.5 |
| B2 | 0.049 |
| B3 | 0.046 |
| B4 | 0.049 |
| B5 | 0.059 |
| B6 | 0.069 |
| B7 | 2.98 |
| B8 | 3.04 |
| B9 | 3.09 |
| B10 | 2.95 |
| B11 | 0.049 |
| B12 | 0.048 |
| B13 | 2.87 |
| B14 | 0.059 |
| B15 | 0.045 |
| B16 | 1.19 |
| B17 | 1.59 |
| B18 | 0.844 |
| B19 | 3.04 |
| B20 | 2.89 |
| B21 | 3.1 |

The binders below were run against T2, cynomolgus monkey HVEM (cynomolgus monkey, UniProt A0A2K5W0R1 39-203) (assay: ELISA).
T2 sequence: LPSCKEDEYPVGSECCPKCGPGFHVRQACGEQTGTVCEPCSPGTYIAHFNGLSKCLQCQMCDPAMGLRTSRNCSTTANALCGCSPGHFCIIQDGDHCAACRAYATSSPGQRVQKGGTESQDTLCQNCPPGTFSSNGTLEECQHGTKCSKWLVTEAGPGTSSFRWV

| Binder | ELISA signal |
| --- | --- |
| B1 | 0.826 |
| B2 | 0.064 |
| B3 | 0.061 |
| B4 | 0.062 |
| B5 | 0.06 |
| B6 | 0.098 |
| B7 | 3.03 |
| B8 | 3.04 |
| B9 | 3.03 |
| B10 | 2.98 |
| B11 | 0.06 |
| B12 | 0.063 |
| B13 | 3.03 |
| B14 | 0.076 |
| B15 | 0.057 |
| B16 | 0.743 |
| B17 | 0.076 |
| B18 | 0.06 |
| B19 | 2.87 |
| B20 | 2.96 |
| B21 | 3.02 |

These binders were tested against T3, murine HVEM (murine, UniProt Q80WM9 39-206, limits assumed) (assay: ELISA).
T3 construct: also called Mouse
T3 sequence (looked up): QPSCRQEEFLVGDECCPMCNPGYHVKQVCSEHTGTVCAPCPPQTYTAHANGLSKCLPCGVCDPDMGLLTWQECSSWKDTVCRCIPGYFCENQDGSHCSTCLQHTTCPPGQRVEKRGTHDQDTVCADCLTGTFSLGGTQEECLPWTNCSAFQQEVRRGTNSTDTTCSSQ

| Binder | ELISA signal |
| --- | --- |
| B1 | 0.044 |
| B2 | 0.043 |
| B3 | 0.042 |
| B4 | 0.046 |
| B5 | 0.043 |
| B6 | 0.05 |
| B7 | 0.043 |
| B8 | 0.048 |
| B9 | 0.044 |
| B10 | 0.045 |
| B11 | 0.043 |
| B12 | 0.044 |
| B13 | 0.042 |
| B14 | 0.045 |
| B15 | 0.042 |
| B16 | 0.051 |
| B17 | 0.048 |
| B18 | 0.044 |
| B19 | 0.045 |
| B20 | 0.044 |
| B21 | 0.043 |
